Source: the supplement of paper PMC11246515
± gives the standard deviation of the averaged measurements.

Assay: total protein half-life in vivo (active degradation + dilution); higher = more stable protein
[1] = E. coli NCM3722 delta-clpP delta-lon delta-hslV, growth: N-lim chemostat, doubling time 6 h
[2] = E. coli NCM3722 delta-clpP, growth: N-lim chemostat, doubling time 6 h
[3] = E. coli NCM3722 delta-hslV, growth: N-lim chemostat, doubling time 6 h
[4] = E. coli NCM3722 delta-lon, growth: N-lim chemostat, doubling time 6 h
[5] = E. coli NCM3722 delta-smpB, growth: N-lim chemostat, doubling time 6 h
[6] = wild type E. coli NCM3722, growth: C-lim chemostat, doubling time 3 h
[7] = wild type E. coli NCM3722, growth: C-lim chemostat, doubling time 6 h
[8] = wild type E. coli NCM3722, growth: C-lim chemostat, doubling time 12 h
[9] = wild type E. coli NCM3722, growth: N-lim chemostat, doubling time 6 h
[10] = wild type E. coli NCM3722, growth: N-lim chemostat, doubling time 12 h
[11] = wild type E. coli NCM3722, growth: P-lim chemostat, doubling time 6 h
[12] = wild type E. coli NCM3722, growth: P-lim chemostat, doubling time 12 h

MNSLFASTARGLEELLKTELENLGAVECQVVQGGVHFKGDTRLVYQSLMWSRLASRIMLPLGECKVYSDLDLYLGVQAINWTEMFNPGATFAVHFSGLNDTIRNSQYGAMKVKDAIVDAFTRKNLPRPNVDRDAPDIRVNVWLHKETASIALDLSGDGLHLRGYRDRAGIAPIKETLAAAIVMRSGWQPGTPLLDPMCGSGTLLIEAAMLATDRAPGLHRGRWGFSGWAQHDEAIWQEVKAEAQTRARKGLAEYSSHFYGSDSDARVIQRARTNARLAGIGELITFEVKDVAQLTNPLPKGPYGTVLSNPPYGERLDSEPALIALHSLLGRIMKNQFGGWNLSLFSASPDLLSCLQLRADKQYKAKNGPLDCVQKNYHVAESTPDSKPAMVAEDYTNRLRKNLKKFEKWARQEGIECYRLYDADLPEYNVAVDRYADWVVVQEYAPPKTIDAHKARQRLFDIIAATISVLGIAPNKLVLKTRERQKGKNQYQKLGEKGEFLEVTEYNAHLWVNLTDYLDTGLFLDHRIARRMLGQMSKGKDFLNLFSYTGSATVHAGLGGARSTTTVDMSRTYLEWAERNLRLNGLTGRAHRLIQADCLAWLREANEQFDLIFIDPPTFSNSKRMEDAFDVQRDHLALMKDLKRLLRAGGTIMFSNNKRGFRMDLDGLAKLGLKAQEITQKTLSQDFARNRQIHNCWLITAA
total protein half-life in vivo [1]: 5.837 ± 0.045 h | total protein half-life in vivo [2]: 6.06 ± 0.79 h | total protein half-life in vivo [3]: 5.92 ± 0.34 h | total protein half-life in vivo [4]: 6.466 ± 0.03 h | total protein half-life in vivo [5]: 5.37 ± 0.12 h | total protein half-life in vivo [6]: 3.13 ± 0.17 h | total protein half-life in vivo [7]: 6.101 ± 0.011 h | total protein half-life in vivo [8]: 10.4 ± 0.11 h | total protein half-life in vivo [9]: 5.428 ± 0.015 h | total protein half-life in vivo [10]: 10.47 ± 0.039 h | total protein half-life in vivo [11]: 6.129 ± 0.044 h | total protein half-life in vivo [12]: 13.1 ± 1.5 h

MNSLRPELLELTPQALTALSNAGFVKRSLKELENGNVPEISHENDALIATFSDGVRTQLANGQALKEAQCSCGANGMCRHRVMLVLSYQRLCATTQSTEKEEEWDPAIWLEELATLPDATRKRAQALVAKGITIELFCAPGEIPSARLPMSDVRFYSRSSIRFARCDCIEGTLCEHVVLAVQAFVEAKAQQAEFNHLIWQMRSEHVTSSDDPFASEEGNACRQYVQQLSQTLWLGGISQPLIHYEAAFNRALQAAETCNWRWVSESLRQLRASVDAFHARASHYNAGECLHQLAALNSRLNCAQEMARRDSIGEVPPVPWRTVVGSGIAGEAKLDHLRLVSLGMRCWQDIEHYGLRIWFTDPDTGSILHLSRSWPRSEQENSPAATRRLFSFQAGALAGGQIVSQAAKRSADGELLLATRNRLSSVVPLSPDAWQMLSAPLRQPGIVALREYLRQRPPACIRPLNQVDNLFILPVAECISLGWDSSRQTLDAQVISGEGEDNVLTLSLPASASAPYAVERMAALLQQTDDPVCLVSGFVSFVEGQLTLEPRVMMTKTRAWALDAETTPVAPLPSASVLPVPSTAHQLLIRCQALLIQLLHNGWRYQEQSAIGQA
total protein half-life in vivo [1]: 3.47 h

MNSLYTAEGVMDKHSLWQRYVPLVRHEALRLQVRLPASVELDDLLQAGGIGLLNAVERYDALQGTAFTTYAVQRIRGAMLDELRSRDWVPRSVRRNAREVAQAIGQLEQELGRNATETEVAERLGIDIADYRQMLLDTNNSQLFSYDEWREEHGDSIELVTDDHQRENPLQQLLDSNLRQRVMEAIETLPEREKLVLTLYYQEELNLKEIGAVLEVGESRVSQLHSQAIKRLRTKLGKL [P0AEM6]
total protein half-life in vivo [1]: 4.94 h | total protein half-life in vivo [6]: 1.78 ± 0.19 h | total protein half-life in vivo [7]: 2.5 ± 0.38 h | total protein half-life in vivo [8]: 3 ± 0.9 h

MNSNKELMQRRSQAIPRGVGQIHPIFADRAENCRVWDVEGREYLDFAGGIAVLNTGHLHPKVVAAVEAQLKKLSHTCFQVLAYEPYLELCEIMNQKVPGDFAKKTLLVTTGSEAVENAVKIARAATKRSGTIAFSGAYHGRTHYTLALTGKVNPYSAGMGLMPGHVYRALYPCPLHGISEDDAIASIHRIFKNDAAPEDIAAIVIEPVQGEGGFYASSPAFMQRLRALCDEHGIMLIADEVQSGAGRTGTLFAMEQMGVAPDLTTFAKSIAGGFPLAGVTGRAEVMDAVAPGGLGGTYAGNPIACVAALEVLKVFEQENLLQKANDLGQKLKDGLLAIAEKHPEIGDVRGLGAMIAIELFEDGDHNKPDAKLTAEIVARARDKGLILLSCGPYYNVLRILVPLTIEDAQIRQGLEIISQCFDEAKQ
total protein half-life in vivo [1]: 3.78 ± 0.21 h | total protein half-life in vivo [2]: 2.96 ± 0.38 h | total protein half-life in vivo [3]: 2.98 ± 0.17 h | total protein half-life in vivo [4]: 3.23 ± 0.15 h | total protein half-life in vivo [5]: 2.83 ± 0.11 h | total protein half-life in vivo [6]: 2.993 ± 0.012 h | total protein half-life in vivo [7]: 4.86 ± 0.26 h | total protein half-life in vivo [8]: 9.33 ± 1.2 h | total protein half-life in vivo [9]: 3.04 ± 0.32 h | total protein half-life in vivo [10]: 4.1 ± 0.17 h | total protein half-life in vivo [11]: 5.414 ± 0.018 h | total protein half-life in vivo [12]: 9.92 ± 0.68 h

MNSRQQTILQMVIDQGQVSVTDLAKATGVSEVTIRQDLNTLEKLSYLRRAHGFAVSLDSDDVETRMMSNYTLKRELAEFAASLVQPGETIFIENGSSNALLARTLGEQKKNVTIITVSSYIAHLLKDAPCEVILLGGVYQKKSESMVGPLTRQCIQQVHFSKAFIGIDGWQPETGFTGRDMMRTDVVNAVLEKECEAIVLTDSSKFGAVHSYSIGPVERFNRVITDSKIRASDLMHLEHSKLTIHVVDI
total protein half-life in vivo [1]: 6.45 ± 1.4 h | total protein half-life in vivo [2]: 6.46 ± 0.62 h | total protein half-life in vivo [3]: 6.54 ± 0.67 h | total protein half-life in vivo [4]: 6.01 ± 0.45 h | total protein half-life in vivo [5]: 5.76 ± 0.27 h | total protein half-life in vivo [6]: 2.87 ± 0.21 h | total protein half-life in vivo [7]: 5.51 ± 0.27 h | total protein half-life in vivo [8]: 11.6 ± 0.87 h | total protein half-life in vivo [9]: 5.91 ± 0.31 h | total protein half-life in vivo [11]: 5.57 ± 0.19 h | total protein half-life in vivo [12]: 13.3 ± 0.69 h

MNTARLNQGTPLLLNAVSKHYAENIVLNQLDLHIPAGQFVAVVGRSGGGKSTLLRLLAGLETPTAGDVLAGTTPLAEIQEDTRMMFQDARLLPWKSVIDNVGLGLKGQWRDAARRALAAVGLENRAGEWPAALSGGQKQRVALARALIHRPGLLLLDEPLGALDALTRLEMQDLIVSLWQEHGFTVLLVTHDVSEAVAMADRVLLIEEGKIGLDLTVDIPRPRRLGSVRLAELEAEVLQRVMQRGESETRLRKQG [P0AAI1]
total protein half-life in vivo [1]: 5.9 ± 0.12 h | total protein half-life in vivo [2]: 1.1 h
